This is an account of results in PMC3353271.

The target in this assay is S. cerevisiae enolase (S. cerevisiae (endogenous in strain R11258)) (UniProt P00925). Put plainly: SEC. Background: Size exclusion chromatography separates by hydrodynamic size, large species first.

One may read the stoichiometry N as a count of units in the complex or per binding partner. Take “S. cerevisiae enolase (from UniProt P00925 1-437) (enzyme)”: the stoichiometry N was 2.
